# Experimental data reported in IntAct's records for PubMed 9418872.
# B1: Tyrosine-protein phosphatase non-receptor type 1 (Homo sapiens), P18031 (parent)
# chain: MEMEKEFEQIDKSGSWAAIYQDIRHEASDFPCRVAKLPKNKNRNRYRDVSPFDHSRIKLHQEDNDYINASLIKMEEAQRSYILTQGPLPNTCGHFWEMVWEQKSRGVVMLNRVMEKGSLKCAQYWPQKEEKEMIFEDTNLKLTLISEDIKSYYTVRQLELENLTTQETREILHFHYTTWPDFGVPESPASFLNFLFKVRESGSLSPEHGPVVVHCSAGIGRSGTFCLADTCLLLMDKRKDPSSVDIKKVLLEMRKFRMGLIQTADQLRFSYLAVIEGAKFIMGDSSVQDQWKELSHEDLEPPPEHIPPPPRPPKRILEPHNGKCREFFPNHQWVKEETQEDKDCPIKEEKGSPLNAAPYGIESMSQDTEVRSRVVGGSLRGAQAASPAKGEPSLPEKDEDHALSYWKPFLVNMCVATVLTAGAYLCYRFLFNSNT
# Variants of: B1
# Conditions: with paxi_mouse Pxn
row,effect of a mutation on the interaction,Variant
1,disrupting interaction,MEMEKEFEQIDKSGSWAAIYQDIRHEASDFPCRVAKLPKNKNRNRYRDVSPFDHSRIKLHQEDNDYINASLIKMEEAQRSYILTQGPLPNTCGHFWEMVWEQKSRGVVMLNRVMEKGSLKCAQYWPQKEEKEMIFEDTNLKLTLISEDIKSYYTVRQLELENLTTQETREILHFHYTTWPDFGVPESPASFLNFLFKVRESGSLSPEHGPVVVHSSAGIGRSGTFCLADTCLLLMDKRKDPSSVDIKKVLLEMRKFRMGLIQTADQLRFSYLAVIEGAKFIMGDSSVQDQWKELSHEDLEPPPEHIPPPPRPPKRILEPHNGKCREFFPNHQWVKEETQEDKDCPIKEEKGSPLNAAPYGIESMSQDTEVRSRVVGGSLRGAQAASPAKGEPSLPEKDEDHALSYWKPFLVNMCVATVLTAGAYLCYRFLFNSNT [C215S]

# Variants of: B1
# Conditions: with fak1_mouse Ptk2, P34152
# fak1_mouse Ptk2, P34152, sequence (P34152 whole entry): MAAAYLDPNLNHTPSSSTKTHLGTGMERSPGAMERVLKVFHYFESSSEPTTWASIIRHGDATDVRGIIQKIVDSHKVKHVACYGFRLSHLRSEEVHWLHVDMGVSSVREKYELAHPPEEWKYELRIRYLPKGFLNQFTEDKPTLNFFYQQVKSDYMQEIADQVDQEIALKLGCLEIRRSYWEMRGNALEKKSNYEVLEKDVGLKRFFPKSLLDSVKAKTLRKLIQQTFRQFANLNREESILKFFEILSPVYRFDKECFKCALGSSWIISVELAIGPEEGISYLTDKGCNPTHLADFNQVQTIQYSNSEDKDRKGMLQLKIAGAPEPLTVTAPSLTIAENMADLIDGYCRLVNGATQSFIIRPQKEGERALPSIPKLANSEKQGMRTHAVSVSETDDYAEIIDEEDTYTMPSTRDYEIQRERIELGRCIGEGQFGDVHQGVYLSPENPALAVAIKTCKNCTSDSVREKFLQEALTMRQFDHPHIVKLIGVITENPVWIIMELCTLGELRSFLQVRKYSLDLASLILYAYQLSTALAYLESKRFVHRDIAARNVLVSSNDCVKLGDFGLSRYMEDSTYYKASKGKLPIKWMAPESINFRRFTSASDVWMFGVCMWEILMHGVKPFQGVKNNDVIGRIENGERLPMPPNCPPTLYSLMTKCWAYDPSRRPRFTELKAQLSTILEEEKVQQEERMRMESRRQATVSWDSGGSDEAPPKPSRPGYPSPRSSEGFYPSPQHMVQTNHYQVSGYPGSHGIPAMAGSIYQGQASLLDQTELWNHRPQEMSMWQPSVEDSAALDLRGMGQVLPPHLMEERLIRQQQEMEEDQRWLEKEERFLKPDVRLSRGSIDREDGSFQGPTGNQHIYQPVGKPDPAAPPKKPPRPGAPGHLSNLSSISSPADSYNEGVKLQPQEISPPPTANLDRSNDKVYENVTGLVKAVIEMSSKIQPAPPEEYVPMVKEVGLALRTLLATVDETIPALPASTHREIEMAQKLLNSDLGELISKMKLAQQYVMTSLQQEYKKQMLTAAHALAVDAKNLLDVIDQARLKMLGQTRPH
row,effect of a mutation on the interaction,Variant
1,disrupting interaction,MEMEKEFEQIDKSGSWAAIYQDIRHEASDFPCRVAKLPKNKNRNRYRDVSPFDHSRIKLHQEDNDYINASLIKMEEAQRSYILTQGPLPNTCGHFWEMVWEQKSRGVVMLNRVMEKGSLKCAQYWPQKEEKEMIFEDTNLKLTLISEDIKSYYTVRQLELENLTTQETREILHFHYTTWPDFGVPESPASFLNFLFKVRESGSLSPEHGPVVVHSSAGIGRSGTFCLADTCLLLMDKRKDPSSVDIKKVLLEMRKFRMGLIQTADQLRFSYLAVIEGAKFIMGDSSVQDQWKELSHEDLEPPPEHIPPPPRPPKRILEPHNGKCREFFPNHQWVKEETQEDKDCPIKEEKGSPLNAAPYGIESMSQDTEVRSRVVGGSLRGAQAASPAKGEPSLPEKDEDHALSYWKPFLVNMCVATVLTAGAYLCYRFLFNSNT [C215S]

# Variants of: B1
# Conditions: with paxi_mouse Pxn
# Remark: another data set of the same source
row,effect of a mutation on the interaction,Variant
1,disrupting interaction,MEMEKEFEQIDKSGSWAAIYQDIRHEASDFPCRVAKLPKNKNRNRYRDVSPFDHSRIKLHQEDNDYINASLIKMEEAQRSYILTQGPLPNTCGHFWEMVWEQKSRGVVMLNRVMEKGSLKCAQYWPQKEEKEMIFEDTNLKLTLISEDIKSYYTVRQLELENLTTQETREILHFHYTTWPDFGVPESPASFLNFLFKVRESGSLSPEHGPVVVHCSAGIGRSGTFCLADTCLLLMDKRKDPSSVDIKKVLLEMRKFRMGLIQTADQLRFSYLAVIEGAKFIMGDSSVQDQWKELSHEDLEPPPEHIPPAPRPPKRILEPHNGKCREFFPNHQWVKEETQEDKDCPIKEEKGSPLNAAPYGIESMSQDTEVRSRVVGGSLRGAQAASPAKGEPSLPEKDEDHALSYWKPFLVNMCVATVLTAGAYLCYRFLFNSNT [P309A]
2,disrupting interaction,MEMEKEFEQIDKSGSWAAIYQDIRHEASDFPCRVAKLPKNKNRNRYRDVSPFDHSRIKLHQEDNDYINASLIKMEEAQRSYILTQGPLPNTCGHFWEMVWEQKSRGVVMLNRVMEKGSLKCAQYWPQKEEKEMIFEDTNLKLTLISEDIKSYYTVRQLELENLTTQETREILHFHYTTWPDFGVPESPASFLNFLFKVRESGSLSPEHGPVVVHCSAGIGRSGTFCLADTCLLLMDKRKDPSSVDIKKVLLEMRKFRMGLIQTADQLRFSYLAVIEGAKFIMGDSSVQDQWKELSHEDLEPPPEHIPPPARPPKRILEPHNGKCREFFPNHQWVKEETQEDKDCPIKEEKGSPLNAAPYGIESMSQDTEVRSRVVGGSLRGAQAASPAKGEPSLPEKDEDHALSYWKPFLVNMCVATVLTAGAYLCYRFLFNSNT [P310A]

# Variants of: B1
# Conditions: with fak1_mouse Ptk2, P34152
# Remark: another data set of the same source
row,effect of a mutation on the interaction,Variant
1,disrupting interaction,MEMEKEFEQIDKSGSWAAIYQDIRHEASDFPCRVAKLPKNKNRNRYRDVSPFDHSRIKLHQEDNDYINASLIKMEEAQRSYILTQGPLPNTCGHFWEMVWEQKSRGVVMLNRVMEKGSLKCAQYWPQKEEKEMIFEDTNLKLTLISEDIKSYYTVRQLELENLTTQETREILHFHYTTWPDFGVPESPASFLNFLFKVRESGSLSPEHGPVVVHCSAGIGRSGTFCLADTCLLLMDKRKDPSSVDIKKVLLEMRKFRMGLIQTADQLRFSYLAVIEGAKFIMGDSSVQDQWKELSHEDLEPPPEHIPPAPRPPKRILEPHNGKCREFFPNHQWVKEETQEDKDCPIKEEKGSPLNAAPYGIESMSQDTEVRSRVVGGSLRGAQAASPAKGEPSLPEKDEDHALSYWKPFLVNMCVATVLTAGAYLCYRFLFNSNT [P309A]
2,disrupting interaction,MEMEKEFEQIDKSGSWAAIYQDIRHEASDFPCRVAKLPKNKNRNRYRDVSPFDHSRIKLHQEDNDYINASLIKMEEAQRSYILTQGPLPNTCGHFWEMVWEQKSRGVVMLNRVMEKGSLKCAQYWPQKEEKEMIFEDTNLKLTLISEDIKSYYTVRQLELENLTTQETREILHFHYTTWPDFGVPESPASFLNFLFKVRESGSLSPEHGPVVVHCSAGIGRSGTFCLADTCLLLMDKRKDPSSVDIKKVLLEMRKFRMGLIQTADQLRFSYLAVIEGAKFIMGDSSVQDQWKELSHEDLEPPPEHIPPPARPPKRILEPHNGKCREFFPNHQWVKEETQEDKDCPIKEEKGSPLNAAPYGIESMSQDTEVRSRVVGGSLRGAQAASPAKGEPSLPEKDEDHALSYWKPFLVNMCVATVLTAGAYLCYRFLFNSNT [P310A]
